Assay results reported in the RNAGym collection of RNA variant scans (doi:10.7554/elife.80360).

B1: CPEB3 Ribozyme (parent)
chain: GGGGGCCACAGCAGAAGCGUUCACGUCGCGGCCCCUGUCAGAUUCUGGUGAAUCUGCGAAUUCUGCUGU

Variants of: B1
Experiment: self-cleavage, relative activity (ratio to wild type); higher = more cleavage; co-transcriptional
For C29A C34G, the self-cleavage was 0.22.
For C29A C34A, the self-cleavage was 0.334.
In the case of C29A U38A, the self-cleavage is reported as 0.365.
C29A U38G showed a self-cleavage of 0.218.
C29A U38C gave a self-cleavage of 0.385.
For C29A A60U, the self-cleavage was 0.257.
G30A U61A gave a self-cleavage of 0.418.
Variant C29G G30A has a self-cleavage of 0.173.
C29G G30C showed a self-cleavage of 0.271.
Work on G30A C34U yielded a self-cleavage of 0.741.
For C29A U53C, the self-cleavage was 0.356.
With C29A U53G the self-cleavage was 0.454.
Variant C29A U53A has a self-cleavage of 0.46.
Work on C29A G48A yielded a self-cleavage of 0.777.
For C29A G48U, the self-cleavage was 0.755.
In the case of C29A G48C, the self-cleavage is reported as 0.728.
C29G A60C showed a self-cleavage of 0.108.
C29G A60G gave a self-cleavage of 0.337.
Variant C29G A60U has a self-cleavage of 0.204.
G30C showed a self-cleavage of 0.682.
With G30A the self-cleavage was 0.913.
In the case of G30A U43A, the self-cleavage is reported as 0.579.
With G30A U43C the self-cleavage was 0.704.
Variant G30A U43G has a self-cleavage of 0.464.
In the case of C29U U69C, the self-cleavage is reported as 0.834.
C29U U69A gave a self-cleavage of 0.619.
C29U U69G gave a self-cleavage of 0.737.
Work on G30A U44A yielded a self-cleavage of 0.658.
For G30A U44C, the self-cleavage was 0.697.
G30C A40G gave a self-cleavage of 0.462.
With G30C A40C the self-cleavage was 0.197.
Variant G30A G48C has a self-cleavage of 0.901.
For G30A G48U, the self-cleavage was 0.868.
Variant C29U C35U has a self-cleavage of 0.314.
Work on G30A U67A yielded a self-cleavage of 0.901.
In the case of G30A U67G, the self-cleavage is reported as 0.948.
For C29G U46G, the self-cleavage was 0.603.
For C29G U46A, the self-cleavage was 0.707.
Variant G30A U36A has a self-cleavage of 0.196.
G30A C45U showed a self-cleavage of 0.884.
In the case of G30A C45G, the self-cleavage is reported as 0.73.
In the case of C29A U46G, the self-cleavage is reported as 0.759.
C29A U67A gave a self-cleavage of 0.668.
C29A U67C showed a self-cleavage of 0.736.
C29G U38G showed a self-cleavage of 0.207.
C29G U38C gave a self-cleavage of 0.302.
Work on C29G G48A yielded a self-cleavage of 0.667.
For C29G G48U, the self-cleavage was 0.602.
Work on C29G G48C yielded a self-cleavage of 0.698.
In the case of G30A C57U, the self-cleavage is reported as 0.272.
In the case of C29U U44G, the self-cleavage is reported as 0.3.
Variant C29U U44C has a self-cleavage of 0.311.
Variant C29G G65U has a self-cleavage of 0.182.
For C29G G65C, the self-cleavage was 0.232.
In the case of C29G G65A, the self-cleavage is reported as 0.286.
For C29A G68C, the self-cleavage was 0.914.
Work on C29A G68U yielded a self-cleavage of 0.903.
In the case of C29A C63G, the self-cleavage is reported as 0.286.
Variant C29A C63A has a self-cleavage of 0.355.
C29A U44A gave a self-cleavage of 0.55.
C29A G41C gave a self-cleavage of 0.195.
In the case of C29A C32U, the self-cleavage is reported as 0.698.
C29A C32G showed a self-cleavage of 0.155.
For C29G C54A, the self-cleavage was 0.259.
Variant C29A C57G has a self-cleavage of 0.225.
C29A C57A gave a self-cleavage of 0.279.
C29U C32G showed a self-cleavage of 0.165.
Variant C29U C32U has a self-cleavage of 0.645.
Variant C29A U64A has a self-cleavage of 0.223.
C29A U64C gave a self-cleavage of 0.25.
Variant C29A U64G has a self-cleavage of 0.292.
Variant C29U G41A has a self-cleavage of 0.184.
For C29U G41C, the self-cleavage was 0.173.
With C29A C66G the self-cleavage was 0.365.
C29A C66U showed a self-cleavage of 0.664.
Work on C29A U69C yielded a self-cleavage of 0.973.
In the case of C29A C33A, the self-cleavage is reported as 0.373.
Variant C29G C33A has a self-cleavage of 0.212.
C29G C33G gave a self-cleavage of 0.16.
Variant G30A A60C has a self-cleavage of 0.261.
G30A A40U gave a self-cleavage of 0.461.
Work on G30A A40G yielded a self-cleavage of 0.754.
For G30A A40C, the self-cleavage was 0.276.
Variant G30C C54G has a self-cleavage of 0.296.
Variant G30C C54U has a self-cleavage of 0.673.
Work on G30C C33U yielded a self-cleavage of 0.576.
Variant C29U U49G has a self-cleavage of 0.514.
With C29U U49A the self-cleavage was 0.542.
C29U U49C showed a self-cleavage of 0.411.
Variant C29U U36A has a self-cleavage of 0.132.
Work on G30C A51G yielded a self-cleavage of 0.628.
G30C A51C gave a self-cleavage of 0.614.
Work on C29A G47C yielded a self-cleavage of 0.716.
C29A G47U gave a self-cleavage of 0.817.
For G30A U55G, the self-cleavage was 0.453.
Work on G30A U55C yielded a self-cleavage of 0.519.
For C29G U69A, the self-cleavage was 0.757.
Work on C29G U69C yielded a self-cleavage of 0.892.
C29U C66A gave a self-cleavage of 0.235.
With C29U C66U the self-cleavage was 0.242.
Work on C29U C54G yielded a self-cleavage of 0.219.
For C29U C54U, the self-cleavage was 0.448.
With G30A C39G the self-cleavage was 0.596.
For G30A C39U, the self-cleavage was 0.598.
With C29G U62C the self-cleavage was 0.251.
C29G U62G gave a self-cleavage of 0.206.
C29G U62A gave a self-cleavage of 0.254.
C29U U46A gave a self-cleavage of 0.699.
C29U U38G gave a self-cleavage of 0.238.
Work on C29U U38C yielded a self-cleavage of 0.189.
Variant C29G G58U has a self-cleavage of 0.558.
In the case of C29G G58C, the self-cleavage is reported as 0.416.
C29U U55C showed a self-cleavage of 0.199.
For C29U U55G, the self-cleavage was 0.167.
C29U U55A showed a self-cleavage of 0.173.
Variant C29G A42U has a self-cleavage of 0.385.
In the case of C29G A42G, the self-cleavage is reported as 0.445.
For G30A U69C, the self-cleavage was 1.04.
Work on G30A U69A yielded a self-cleavage of 1.
Work on G30A G31C yielded a self-cleavage of 0.254.
Variant C29U A59G has a self-cleavage of 0.58.
Work on C29U A59C yielded a self-cleavage of 0.237.
Variant C29U A40C has a self-cleavage of 0.203.
Work on C29U A40G yielded a self-cleavage of 0.288.
Work on C29U A40U yielded a self-cleavage of 0.157.
C29G U44C gave a self-cleavage of 0.314.
Variant C29G U44A has a self-cleavage of 0.338.
C29G U55A showed a self-cleavage of 0.267.
Variant C29G U55C has a self-cleavage of 0.253.
C29G U55G showed a self-cleavage of 0.171.
Work on G30A U53G yielded a self-cleavage of 0.356.
Variant G30A U53A has a self-cleavage of 0.541.
Work on G30A U53C yielded a self-cleavage of 0.604.
With C29G C39A the self-cleavage was 0.213.
C29U G50U gave a self-cleavage of 0.517.
Variant C29U G50A has a self-cleavage of 0.524.
With C29U G50C the self-cleavage was 0.321.
G30A C32G gave a self-cleavage of 0.261.
In the case of G30A C32A, the self-cleavage is reported as 0.245.
For G30A C32U, the self-cleavage was 0.714.
With C29U G48A the self-cleavage was 0.601.
With C29U G48U the self-cleavage was 0.583.
For C29G C34G, the self-cleavage was 0.294.
In the case of C29G C32A, the self-cleavage is reported as 0.196.
Variant C29G C32G has a self-cleavage of 0.18.
Variant C29G U49A has a self-cleavage of 0.521.
C29G U49G gave a self-cleavage of 0.65.
C29U C57G showed a self-cleavage of 0.177.
C29U C57U showed a self-cleavage of 0.227.
C29U C57A showed a self-cleavage of 0.154.
For C29A A52U, the self-cleavage was 0.671.
C29A A52C showed a self-cleavage of 0.64.
In the case of C29A A52G, the self-cleavage is reported as 0.77.
C29G A40C showed a self-cleavage of 0.157.
C29G A40U gave a self-cleavage of 0.277.
C29G A40G showed a self-cleavage of 0.457.
G30A A51U showed a self-cleavage of 0.752.
With G30A A51G the self-cleavage was 0.744.
With C29U A42U the self-cleavage was 0.262.
In the case of C29A G58A, the self-cleavage is reported as 0.435.
G30A C35A gave a self-cleavage of 0.207.
Variant C29U U64C has a self-cleavage of 0.371.
C29U C45G showed a self-cleavage of 0.404.
For C29U C45A, the self-cleavage was 0.307.
For C29U C45U, the self-cleavage was 0.505.
In the case of G30C A42G, the self-cleavage is reported as 0.604.
For G30C A42C, the self-cleavage was 0.441.
